Experiments:
Assay in all cases: immunoblotting after reducing SDS-PAGE
[1] = target: purified human MMP-9 (Daiichi Fine Chemical) (human, UniProt P14780 20-707, limits assumed)
Source text: (§1) Recombinant proteins of human ADAMTS1 (R&D Systems), ADAMTS4, ADAMTS5 (R&D Systems), ADAMTS15 (R&D Systems), ADAM10 (R&D Systems), ADAM12 (Mochida Pharmaceutical Co., Ltd., Tokyo, Japan), ADAM17 (R&D Systems) and MMP-13 (Millipore, Billerica, Mass.) and purified human MMP-1, MMP-2, MMP-3 and MMP-9 (Daiichi Fine Chemical, Co., Ltd., Toyama, Japan) were subjected to sodium dodecyl sulfate-polyacrylamide gel electrophoresis (SDS-PAGE) under reducing conditions, and the samples resolved on the gels were transferred onto polyvinylidene difluoride (PVDF) membranes. […] After washing with phosphate buffered saline containing 0.1% Tween 20, the membranes were reacted with horseradish peroxidase-conjugated secondary antibody against human IgG (Invitrogen, Carlsbad, Calif.) for 1 h at room temperature. A chemiluminescence reagent (Pierce ECL western blotting substrate; Thermo Fisher Scientific, Waltham, Mass.) was used to make the labeled protein bands visible. All the samples were also examined on silver-stained gels, which were prepared by silver stain kit (Cosmo Bio Co., Ltd, […].).

[2] = target: T1, recombinant human ADAM10 (R&D Systems) (human, UniProt O14672 214-672, limits assumed)
T1 sequence (looked up): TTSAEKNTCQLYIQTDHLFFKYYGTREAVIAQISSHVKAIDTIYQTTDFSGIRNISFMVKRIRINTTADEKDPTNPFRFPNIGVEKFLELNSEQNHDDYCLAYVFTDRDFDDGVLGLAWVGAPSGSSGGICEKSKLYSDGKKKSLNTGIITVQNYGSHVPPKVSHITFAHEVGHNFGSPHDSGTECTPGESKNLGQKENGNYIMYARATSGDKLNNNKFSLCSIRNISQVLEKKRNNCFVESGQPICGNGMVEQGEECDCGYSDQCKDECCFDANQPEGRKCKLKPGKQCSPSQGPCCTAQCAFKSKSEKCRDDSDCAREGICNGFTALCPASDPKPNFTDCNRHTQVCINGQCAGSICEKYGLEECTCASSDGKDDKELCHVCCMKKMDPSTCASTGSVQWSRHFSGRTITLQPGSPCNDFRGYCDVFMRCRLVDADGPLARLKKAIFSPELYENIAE
Source text: as §1

[3] = target: T2, recombinant human ADAMTS15 (R&D Systems) (human, UniProt Q8TE58 213-950, limits assumed)
T2 sequence (looked up): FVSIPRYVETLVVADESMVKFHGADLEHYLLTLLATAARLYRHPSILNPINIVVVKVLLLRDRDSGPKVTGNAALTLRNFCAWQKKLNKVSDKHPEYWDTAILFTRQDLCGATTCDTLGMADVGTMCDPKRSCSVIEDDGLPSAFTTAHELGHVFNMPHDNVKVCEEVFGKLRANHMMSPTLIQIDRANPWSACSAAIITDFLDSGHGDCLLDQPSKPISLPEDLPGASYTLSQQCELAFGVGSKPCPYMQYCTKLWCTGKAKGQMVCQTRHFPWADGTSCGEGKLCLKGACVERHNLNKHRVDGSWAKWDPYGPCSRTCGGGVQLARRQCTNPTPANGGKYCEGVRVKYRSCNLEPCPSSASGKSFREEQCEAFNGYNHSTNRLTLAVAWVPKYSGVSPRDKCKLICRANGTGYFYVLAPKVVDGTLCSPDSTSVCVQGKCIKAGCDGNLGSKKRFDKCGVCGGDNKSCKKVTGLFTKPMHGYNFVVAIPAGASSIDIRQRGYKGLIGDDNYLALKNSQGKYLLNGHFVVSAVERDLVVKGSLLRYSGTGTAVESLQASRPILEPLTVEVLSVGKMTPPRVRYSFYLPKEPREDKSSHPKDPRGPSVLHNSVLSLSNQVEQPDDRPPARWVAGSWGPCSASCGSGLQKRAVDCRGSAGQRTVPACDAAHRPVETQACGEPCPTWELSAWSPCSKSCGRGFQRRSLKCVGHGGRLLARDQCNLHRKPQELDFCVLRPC
Source text: as §1

[4] = target: T3, purified human MMP-1 (Daiichi Fine Chemical) (human, UniProt P03956 20-469, limits assumed)
T3 sequence (looked up): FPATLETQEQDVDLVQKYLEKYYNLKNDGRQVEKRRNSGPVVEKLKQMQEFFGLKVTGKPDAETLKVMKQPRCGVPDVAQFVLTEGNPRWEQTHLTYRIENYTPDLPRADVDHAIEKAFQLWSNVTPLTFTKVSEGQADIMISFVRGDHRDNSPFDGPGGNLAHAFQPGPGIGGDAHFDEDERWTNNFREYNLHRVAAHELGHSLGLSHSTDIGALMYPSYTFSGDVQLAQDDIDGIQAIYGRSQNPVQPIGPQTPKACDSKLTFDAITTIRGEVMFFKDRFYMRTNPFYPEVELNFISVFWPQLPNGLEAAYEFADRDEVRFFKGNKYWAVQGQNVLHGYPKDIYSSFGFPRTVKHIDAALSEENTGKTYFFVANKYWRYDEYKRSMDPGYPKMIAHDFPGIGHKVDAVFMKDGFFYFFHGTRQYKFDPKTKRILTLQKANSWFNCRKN
Source text: as §1

[5] = target: purified human MMP-3 (Daiichi Fine Chemical) (human, UniProt P08254 18-477, limits assumed)
purified human MMP-3 (Daiichi Fine Chemical), sequence (P08254 18-477 limits assumed): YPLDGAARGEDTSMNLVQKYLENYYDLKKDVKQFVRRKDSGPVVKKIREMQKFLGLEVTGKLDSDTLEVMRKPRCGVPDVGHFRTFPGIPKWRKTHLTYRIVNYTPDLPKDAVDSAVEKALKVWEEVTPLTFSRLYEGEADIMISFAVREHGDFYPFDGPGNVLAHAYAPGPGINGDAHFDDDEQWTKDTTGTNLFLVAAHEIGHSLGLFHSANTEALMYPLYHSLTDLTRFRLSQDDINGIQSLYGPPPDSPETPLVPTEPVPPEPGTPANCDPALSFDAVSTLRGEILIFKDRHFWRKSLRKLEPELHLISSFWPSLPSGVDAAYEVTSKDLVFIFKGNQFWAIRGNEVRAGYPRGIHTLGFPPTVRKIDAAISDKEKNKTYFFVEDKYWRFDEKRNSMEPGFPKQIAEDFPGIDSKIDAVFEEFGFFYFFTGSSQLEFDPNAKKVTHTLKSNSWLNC
Source text: as §1

Measured: binding result

purified human MMP-9 (Daiichi Fine Chemical), sequence (P14780 20-707 limits assumed): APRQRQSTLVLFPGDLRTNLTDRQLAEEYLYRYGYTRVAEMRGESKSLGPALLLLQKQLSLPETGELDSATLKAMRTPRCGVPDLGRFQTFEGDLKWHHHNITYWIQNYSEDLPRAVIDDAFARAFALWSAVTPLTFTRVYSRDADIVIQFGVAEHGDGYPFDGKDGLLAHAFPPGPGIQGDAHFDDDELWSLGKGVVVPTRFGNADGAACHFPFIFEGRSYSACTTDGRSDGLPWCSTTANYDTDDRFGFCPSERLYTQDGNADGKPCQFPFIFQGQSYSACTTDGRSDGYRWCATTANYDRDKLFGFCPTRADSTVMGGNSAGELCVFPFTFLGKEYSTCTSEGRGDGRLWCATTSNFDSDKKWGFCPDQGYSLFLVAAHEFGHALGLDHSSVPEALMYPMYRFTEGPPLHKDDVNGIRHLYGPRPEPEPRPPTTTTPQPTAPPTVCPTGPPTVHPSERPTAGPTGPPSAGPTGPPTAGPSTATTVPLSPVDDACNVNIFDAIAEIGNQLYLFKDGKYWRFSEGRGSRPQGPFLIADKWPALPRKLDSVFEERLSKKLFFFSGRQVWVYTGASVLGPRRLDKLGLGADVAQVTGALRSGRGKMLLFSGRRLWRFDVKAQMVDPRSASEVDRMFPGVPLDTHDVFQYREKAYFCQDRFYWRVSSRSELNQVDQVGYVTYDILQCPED

B1: Fab of clone 237-53 (Fab, V domains shown)
VH: QVQLVQSGAEVKKPGSSVKVSCKASGGTFSSFAISWVRQAPGQGLEWMGGIFPIFGQANYAQKFQGRVTITADESTSTAYMELSSLRSEDTAVYYCARFSDWWEWQMDYWGQGTLVTVSS
VL: DIVMTQSPDSLAVSLGERATINCRSSQSILYSSNNNYLAWYQQKPGQPPKLLIHTASARESGVPDRFSGSGSGTDFTLTISSLQAEDVAVYYCQQYYSVSITFGQGTKVEIKR
no binding (tested: 5 µg/ml): all assays above

Source: patent US20160304622A1 (GENEFRONTIER, published 2016)
